According to patent publication US6787341B2, “Pharmacological targeting of bacterial DNA ligase for treatment and prevention of bacterial infections” (priority 2001, dated 2004):

Test system: NC(=O)c1ccc[n+]([C@@H]2O[C@H](COP(=O)([O-])OP(=O)(O)OC[C@H]3O[C@@H](n4cnc5c(N)ncnc54)[C@H](O)[C@@H]3O)[C@@H](O)[C@H]2O)c1
Assay: Nucleotide cofactor specificity of AmEPV ligase in nick ligation
Type: biochemical, Amsacta moorei entomopoxvirus
Settings: other: from double-reciprocal plot, sub-saturating enzyme; pH 7.5; 22.0 °C
Method: Reaction mixtures (20 μl) containing 50 mM Tris-HCl (pH 7.5), 10 mM (NH4)2SO4, 5 mM DTT, 5 mM MgCl2, 1 pmol of ^32P-labeled nicked DNA, 32 ng of AmEPV ligase, and 50 μM of the indicated nucleotide were incubated for 30 min at 22° C. A control reaction contained no added nucleotide cofactor (none). The reaction products were resolved by polyacrylamide gel electrophoresis. An autoradiogram of the gel is shown.
A low level of nick ligation could be detected in the absence of added nucleotide (FIG. 6). Cofactor-independent ligation was attributed to pre-adenylated ligase in the enzyme preparation. […] Inclusion of NAD^+ in the reaction mixture stimulated nick ligation such that ˜90% of the input substrate molecules were sealed (FIG. 6). […] Indeed, none of the standard rNTPs or dNTPs were able to satisfy the requirement of AmEPV ligase for a high energy cofactor (FIG. 6). […] A Km of 9 μM NAD^+ was calculated from a double-reciprocal plot of the data.

Work on “AmEPV ligase (Betaentomopoxvirus amoorei)” yielded a Km of 9 µM.
